# Measured values as given in publication PMC6733935, “A convenient and efficient total solid-phase synthesis of DOTA-functionalized tumor-targeting peptides for PET imaging of cancer” (EJNMMI Research, 2019).
# Numbered stars: 1 amine (or outer) side, 2 acyl side, 3 side chain; on linkers, the order of the positions; unused ones are H or OH. Square brackets hold non-standard residues; d marks the D form. Peptide text beside a SMILES is read from it. * marks the point of attachment. DOTA = O=C(O)CN1CCN(CC(=O)O)CCN(CC(=O)*)CCN(CC(=O)O)CC1; Cha = N[C@@H](CC1CCCCC1)C(=O)O; X1 = O=C(CCC(=O)[*:2])CN[*:1]; 4Abz = Nc1ccc(C(=O)O)cc1; Nle = CCCC[C@H](N)C(=O)O
# Columns and labels:
# [1] = assay type: physicochemical
# Experimental: For lipophilicity determination, each HPLC-purified radiopeptide (~ 20 μL, ∼ 25 μCi) was added into a glass tube containing an equal volume mixture of n-octanol and water (1 mL each). The samples were vigorously vortexed for 5 min and subsequently centrifuged (5000 rpm, 5 min) to yield two immiscible layers. Duplicate samples (100 μL) from each layer were carefully taken (to avoid cross-contamination between the layers) for radioactivity measurement using a γ-counter. Partition coefficient was determined by the function: partition coefficient = Log10 (radioactivity in octanol layer/radioactivity in aqueous layer).
# [2] = target: T1, BN/GRP receptor-positive PC3 human prostate cancer cells (Homo sapiens, UniProt P30550); assay: Saturation binding assay on PC3 cells; settings: n = 3-5 experiments; for Bmax (apparent number of binding sites per cell): SD < 15%; for Kd: ~300,000 cells, 0.1-25 nM radiopeptide, 60 min, room temperature, mean ± SD
# T1 construct: BN/GRP receptor-positive MDA-MB-231, MCF7, T47D human breast cancer, and PC3 human prostate cancer lines; host or cells: MDA-MB-231, MCF7, T47D (human breast cancer), PC3 (human prostate cancer); intact cells
# Experimental: (§1) The cell binding of ^68Ga-radiolabeled peptides into BN/GRP receptor-positive MDA-MB-231, MCF7, T47D human breast cancer, and PC3 human prostate cancer lines (American Type Culture Collection, Rockville, MD, USA) was performed according to the method described previously. In brief, ∼ 300,000 cells (in 300 μL in low-serum media) were incubated with various amounts of radiopeptides, ranging between 0.1 and 25 nM of peptide (prepared from the serial dilutions of HPLC-purified radiopeptides), in duplicate for 60 min at room temperature. The initial concentrations of ^68Ga-labeled peptides were determined according to a well-established HPLC technique with simultaneous detection by UV absorbance. As the amount of BN peptide in the reaction mixture was too small to be detected by UV absorption at 220 nm, the radioactive peptide chromatograms from the HPLC analysis were compared (with UV chromatograms) with those of known concentrations of the corresponding nonradioactive peptides for the mass determination. Incubation was terminated by dilution with cold saline (300 μL) and the cells were pelleted by centrifugation. The cell pellets was then rapidly washed with cold saline to remove any unbound peptide and centrifuged to collect supernatants. Radioactivity in the cell pellet and the washings was measured in a γ-counter. Non-specific binding was determined in the presence of ~ 200-fold molar excess of unlabeled BN peptide. Specific binding is calculated by subtracting the non-specifically bound radioactivity from that of the total binding. The dissociation constant (Kd) was calculated using a plot of cell bound activity versus the concentration of the radioligand using GraphPad Prism software (GraphPad Software Inc., San Diego, CA, USA).
# [3] = Radio-HPLC retention time as reflection of lipophilicity; assay type: physicochemical; settings: chromatographic, econosphere C18 (10 μm, 250 × 4.6 mm), 0.1% TFA water/acetonitrile, 5 to 95% B over 30 min, 1.1 mL/min; radio detection; used as reflection of lipophilicity
# Experimental: The HPLC analysis and purification of the peptides were performed on a Shimadzu HPLC system using econosphere C18 reversed-phase column (10 μm, 250 × 4.6 mm). For all HPLC experiments, a gradient system of 0.1% (v/v) TFA in water (solvent A) and 0.1% (v/v) TFA in acetonitrile (solvent B) at a flow rate of 1.1 mL/min was used. The HPLC gradient began with a solvent composition of 95% A and 5% B from 0 to 2.5 min followed by a linear gradient of 95% A and 5% B to 5% A and 95% B over 30 min. The gradient remained at this position for 3 min before switching back to 95% A and 5% B for another 7 min. The major peak isolated and the acetonitrile was then slowly evaporated under a stream of nitrogen gas. Radiochemical purity was estimated by evaluating radioactivity peaks eluted for each ^68Ga-labeled peptide from the HPLC column and calculating the area under the peak (ROI). The main peak of each radiopeptide was isolated and reconstituted in sterile saline for in vitro and in vivo experiments. Radiolabeling of DOTA-coupled BN peptides with ^68Ga was accomplished simply by mixing ~ 20 μg BN peptide with sodium acetate buffer and ^68GaCl3 followed by heating to complete the labeling reaction. By this facile method, a high and reproducible radiolabeling of peptides with ^68Ga was achieved (up to 95%), with a specific radioactivity of greater than 250 Ci/mmol. […] A radiolabeling efficiency of greater than 90% was obtained in all cases, and it ranged between 90 and 95%. […] RP-HPLC retention times of the major peaks, ranging from 18.3 to 20.3 min, reflected slightly variable lipophilicity of these ^68Ga-complexes (Table 1).
# [4] = target: T2, BN/GRP receptor-positive T47D human breast cancer cells (Homo sapiens, UniProt P30550); assay: Saturation binding assay on T47D cells; settings: n = 3-5 experiments; for Bmax (apparent number of binding sites per cell): SD < 15%; for Kd: ~300,000 cells, 0.1-25 nM radiopeptide, 60 min, room temperature, mean ± SD
# T2 construct: BN/GRP receptor-positive MDA-MB-231, MCF7, T47D human breast cancer, and PC3 human prostate cancer lines; host or cells: MDA-MB-231, MCF7, T47D (human breast cancer), PC3 (human prostate cancer); intact cells
# Experimental: as §1
# in vivo = assay type: in vivo, nude mice; settings: female, nude, mouse, in vivo, total radioactivity; for dose excreted at 1 h / dose excreted at 2 h: Radioactivity in Urine + bladder
# Outline: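 Female mice bore subcutaneous left-thigh xenografts of ~5 million MDA-MB-231 cells in PBS, grown 4-6 weeks to 200-300 mg. Animals received 20-30 μCi of 68Ga-labelled peptide and were sacrificed at set time points; tumour and organ uptake measured by γ-counting.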
# [5] = Uptake in Intestines (measured without their contents)
structure (smiles),measurement,setting,value
"CCCC[C@H](NC(=O)[C@H](Cc1c[nH]cn1)NC(=O)[C@H](CC1CCCCC1)NC(=O)[C@@H](NC(=O)[C@H](C)NC(=O)[C@H](Cc1c[nH]c2ccccc12)NC(=O)[C@H](CCC(N)=O)NC(=O)[C@H](CS)NC(=O)CNC(=O)CNC(=O)CCC(=O)CNC(=O)CN1CCN(CC(=O)O)CCN(CC(=O)O)CCN(CC(=O)O)CC1)C(C)C)C(=O)N[C@@H](CCSC)C(N)=O [^68Ga-DOTA-ALA-BN Cyclen, metal not drawn] ({DOTA}-[X1]GGCQWAV[Cha]H[Nle]M-NH2)",Log P (octanol/water),[1],− 0.80 ± 0.05
same,Bmax (apparent number of binding sites per cell),[2],2.12 × 10^5 sites/cell
same,Kd,[2],9.7 ± 2.01 nM
same,Radio-HPLC tR,[3],20.3 min
same,Bmax (apparent number of binding sites per cell),[4],9.90 × 10^4 sites/cell
same,Kd,[4],15.6 ± 3.47 nM
same,dose excreted at 1 h,in vivo,62 ± 6.28%
same,dose excreted at 2 h,in vivo,71 ± 9.68%
same,tissue uptake at 1 h,in vivo; Uptake in Blood,0.79 ± 0.13 %ID/g
same,tissue uptake at 2 h,in vivo; Uptake in Blood,0.37 ± 0.1 %ID/g
same,tissue uptake at 1 h,in vivo; [5],0.9 ± 0.12 %ID/g
same,tissue uptake at 2 h,in vivo; [5],0.6 ± 0.1 %ID/g
same,tissue uptake at 1 h,in vivo; Uptake in Kidneys,5.94 ± 0.63 %ID/g
same,tissue uptake at 2 h,in vivo; Uptake in Kidneys,3.2 ± 0.32 %ID/g
same,tissue uptake at 1 h,in vivo; Uptake in Liver,1.4 ± 0.26 %ID/g
same,tissue uptake at 2 h,in vivo; Uptake in Liver,1.12 ± 0.19 %ID/g
same,tissue uptake at 2 h,in vivo; Uptake in Lungs,0.67 ± 0.13 %ID/g
same,tissue uptake at 1 h,in vivo; Uptake in Muscle,0.3 ± 0.06 %ID/g
same,tissue uptake at 2 h,in vivo; Uptake in Muscle,0.21 ± 0.03 %ID/g
same,tissue uptake at 1 h,in vivo; Uptake in Pancreas,1.05 ± 0.12 %ID/g
same,tissue uptake at 2 h,in vivo; Uptake in Pancreas,0.88 ± 0.11 %ID/g
same,tissue uptake at 1 h,in vivo; Uptake in Spleen,0.26 ± 0.03 %ID/g
same,tissue uptake at 1 h,in vivo; Uptake in Stomach,0.87 ± 0.19 %ID/g
same,tissue uptake at 2 h,in vivo; Uptake in Stomach,0.46 ± 0.05 %ID/g
"CCCC[C@H](NC(=O)[C@H](Cc1c[nH]cn1)NC(=O)[C@H](CC1CCCCC1)NC(=O)[C@@H](NC(=O)[C@H](C)NC(=O)[C@H](Cc1c[nH]c2ccccc12)NC(=O)[C@H](CCC(N)=O)NC(=O)[C@H](CS)NC(=O)CNC(=O)CNC(=O)CCC(=O)CNC(=O)CN1CCN(CC(=O)O)CCN(CC(=O)O)CCN(CC(=O)O)CC1)C(C)C)C(=O)N[C@@H](CCSC)C(N)=O [^68Ga-DOTA-ALA-BN Tris-, metal not drawn] ({DOTA}-[X1]GGCQWAV[Cha]H[Nle]M-NH2)",Log P (octanol/water),[1],− 0.88 ± 0.07
same,Bmax (apparent number of binding sites per cell),[2],2.63 × 10^5 sites/cell
same,Kd,[2],13.5 ± 2.53 nM
same,Radio-HPLC tR,[3],20.3 min
same,Bmax (apparent number of binding sites per cell),[4],9.68 × 10^4 sites/cell
same,Kd,[4],16 ± 4.01 nM
"CCCC[C@H](NC(=O)[C@H](Cc1c[nH]cn1)NC(=O)[C@H](CC1CCCCC1)NC(=O)[C@@H](NC(=O)[C@H](C)NC(=O)[C@H](Cc1c[nH]c2ccccc12)NC(=O)[C@H](CCC(N)=O)NC(=O)[C@H](CS)NC(=O)CNC(=O)CNC(=O)c1ccc(NC(=O)CN2CCN(CC(=O)O)CCN(CC(=O)O)CCN(CC(=O)O)CC2)cc1)C(C)C)C(=O)N[C@@H](CCSC)C(N)=O [^68Ga-DOTA-Abz-BN Cyclen, metal not drawn] ({DOTA-4Abz}-GGCQWAV[Cha]H[Nle]M-NH2)",Bmax (apparent number of binding sites per cell),[2],4.30 × 10^5 sites/cell
same,Radio-HPLC tR,[3],19.2 min
same,Bmax (apparent number of binding sites per cell),[4],1.17 × 10^5 sites/cell
same,dose excreted at 1 h,in vivo,61 ± 9.93%
same,dose excreted at 2 h,in vivo,78 ± 5.89%
same,tissue uptake at 1 h,in vivo; Uptake in Blood,1 ± 0.16 %ID/g
same,tissue uptake at 2 h,in vivo; Uptake in Blood,0.55 ± 0.1 %ID/g
same,tissue uptake at 1 h,in vivo; [5],0.95 ± 0.27 %ID/g
same,tissue uptake at 2 h,in vivo; [5],0.54 ± 0.16 %ID/g
same,tissue uptake at 1 h,in vivo; Uptake in Kidneys,6.03 ± 1 %ID/g
same,tissue uptake at 2 h,in vivo; Uptake in Kidneys,5 ± 0.77 %ID/g
same,tissue uptake at 1 h,in vivo; Uptake in Liver,2.54 ± 0.46 %ID/g
same,tissue uptake at 2 h,in vivo; Uptake in Liver,2 ± 0.37 %ID/g
same,tissue uptake at 1 h,in vivo; Uptake in Lungs,2.8 ± 0.55 %ID/g
same,tissue uptake at 2 h,in vivo; Uptake in Lungs,1.15 ± 0.23 %ID/g
same,tissue uptake at 1 h,in vivo; Uptake in Muscle,0.32 ± 0.06 %ID/g
same,tissue uptake at 2 h,in vivo; Uptake in Muscle,0.26 ± 0.05 %ID/g
same,tissue uptake at 1 h,in vivo; Uptake in Pancreas,2.94 ± 0.43 %ID/g
same,tissue uptake at 2 h,in vivo; Uptake in Pancreas,1.18 ± 0.31 %ID/g
same,tissue uptake at 1 h,in vivo; Uptake in Spleen,0.22 ± 0.07 %ID/g
same,tissue uptake at 2 h,in vivo; Uptake in Spleen,0.12 ± 0.02 %ID/g
same,tissue uptake at 1 h,in vivo; Uptake in Stomach,1.34 ± 0.29 %ID/g
same,tissue uptake at 2 h,in vivo; Uptake in Stomach,0.49 ± 0.12 %ID/g
